41 sequences from the nanobody polyreactivity screen of Harvey et al. (2022) can be followed below.

The series is described as follows: yeast display, Sf9 membrane polyspecificity reagent, FACS + sequencing; frameworks hold sequencing errors. The gist of the method:
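Nanobodies from a synthetic yeast display library (Saccharomyces cerevisiae BJ5465), induced 36–48 hours with galactose, were stained 1 hour at 4 °C with 10% biotinylated, detergent-solubilized Sf9 membrane reagent, enriched on streptavidin microbeads, then FACS-sorted. Anti-HA (expression) and streptavidin (reagent binding) fluorescence set low and high (top ~1%) gates. Polyreactivity labels come from the gate of origin. Genes were colony-PCR amplified, MiSeq 2 × 250 sequenced and filtered by CDR length.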
In the case of “QVQLVESGGGLVQAGGSLRLSCAASGSTFVDNAMGWYRQAPGKERELVAAIRDGSGGSTRYADSVKGRFTISRDNAKNTVYLQMNSLKPEDTAVYYCAADGYITVNYLRYDYWGQGTQVTVSS”, the “polyreactivity (PSR sort gate)” value is “low polyreactivity”.

With “QVQLVESGGGLVQAGGSLRLSCAASGSTFVDNAMGWYRQAPGKERELVAAISTRGGTTYYADSVKGRFTISRDNAKNTVYLQMKSLKAEDTAVYYCAAEIFTSVWWRWVDGDYWGQGTQVTVSS”, the “polyreactivity (PSR sort gate)” value is “high polyreactivity”.

On to “QVQLVESGGGLVQAGGSLRLSCAASGSTFVDNAMGWYRQAPGKERELVADISSGGSTYYADSVKGRFTISRDNAKNTVYLQMNSLKPEDTAVYYCNAESFYWWHSYDYWGQGTQVTVSS”, for which the “polyreactivity (PSR sort gate)” value is given as “high polyreactivity”.

In the case of “QVQLVESGGGLVQAGGSLRLSCAASGSTFVDNAMGWYRQAPGKERELVASITYRGGSTYYADSVKGRFTISRDNAKNTVYLQMNSLKPEDTAVYYCAKGHYFKYDYWGQGTQVTVSS”, the “polyreactivity (PSR sort gate)” value is “low polyreactivity”.

For the sequence “QVQLVESGGGLVQAGGSLRLSCAASGSTFVDNDMGWYRQAPGKERELVAAIDQSGGSTSYADSVKGRFTISRDNAKNTVYLQMNSLKPEDTAVYYCATPSYTTAYVEGDYWGQGTQVTVSS”, the “polyreactivity (PSR sort gate)” value is “low polyreactivity”.

As to “QVQLVESGGGLVQAGGSLRLSCAASGSTFVENAMGWYRQAPGKERELVAAISSSGDSTFYADSVKGRFTISRDNAKNTVYLKMNSLKPEDTAVYYCAADRRINYDGLDMDYWGQGTQVTVSS”, the “polyreactivity (PSR sort gate)” value was “low polyreactivity”.

For the sequence “QVQLVESGGGLVQAGGSLRLSCAASGSTFVFNAMGWYRPAPGKERELVAAISSTGSTYYADSVKGRFTISRDNAKNTVYLQMNSLKPEDTAVYYCAAPYGFSYKGATYDSWGQGTQVTVSS”, the “polyreactivity (PSR sort gate)” value is given as “high polyreactivity”.

For “QVQLVESGGGLVQAGGSLRLSCAASGSTFVGNAMGWYRQAPGKERELVATIRYSDGSTYYADSVKGRFTISRDNAKNTVYLQMNSLKPEDTAVYYCATRVKQKGPYRYSARYFYTYNYWGQGTQVTVSS”, the “polyreactivity (PSR sort gate)” value was “high polyreactivity”.

Turning to “QVQLVESGGGLVQAGGSLRLSCAASGSTFVGYAMGWYRQAPGKERELVAAITSRGGRTYYADSVKGRFTISRDNAKNTVYLQMNSLKPEDTAVYYCNAKRPRIGVTRYDYWGQGTQVTVSS”, the “polyreactivity (PSR sort gate)” value was “high polyreactivity”.

Take “QVQLVESGGGLVQAGGSLRLSCAASGSTFVGYAMGWYRQAPGKERELVADIDSIGGSTYYADSVKGRFTISRDNAKNTVYLQMNSLKPEDTAVDYCAARRFDTALVLYDYWGQGTQVTVSS”: the “polyreactivity (PSR sort gate)” value is recorded as “low polyreactivity”.

As to “QVQLVESGGGLVQAGGSLRLSCAASGSTFVGYARGWYRQEPGNETELVAAISGSGTSTYYADSVKGRFTISLDNAKNTVYLQMNSLKPEDTAVYYCKADPIFVYSSYNYWGQGTQVTVSS”, the “polyreactivity (PSR sort gate)” value was “low polyreactivity”.

As for “QVQLVESGGGLVQAGGSLRLSCAASGSTFVHYAMGWYRQAPGKERELVAAINDGGSTHYADSVKGRFTISRDNAKNTVYLQMNSLKPEDTAVYYCAAEYVWYRYPDYWGAYDYWGQGTQVTVSS”, the “polyreactivity (PSR sort gate)” value is “low polyreactivity”.

Turning to “QVQLVESGGGLVQAGGSLRLSCAASGSTFVIYAMGWYRQAPGKERELVAAIRRRGGSTYYADSVKGRFTISRDNAKNTVYLQMNSLKPEDSAVYYCATAGQGAFWGQGTQVTVSS”, the “polyreactivity (PSR sort gate)” value is on record as “high polyreactivity”.

In the case of “QVQLVESGGGLVQAGGSLRLSCAASGSTFVIYAMGWYRQAPGKERELVAAITFSGGRTYYADSVKGRFTISRDNAKNTVYLQMNSLKPEDTAVYYCNARHRNLAEYDYWGQGTQVTVSS”, the “polyreactivity (PSR sort gate)” value is listed as “low polyreactivity”.

Turning to “QVQLVESGGGLVQAGGSLRLSCAASGSTFVKNVMGWYRQAPGKERELVAGITRGGSTYYADSVKGRFTISRDNAKNTVYLQMNSLKPEDTAVYYCNRVRYPSYDYWGQGTQVTVSS”, the “polyreactivity (PSR sort gate)” value is on record as “high polyreactivity”.

As for “QVQLVESGGGLVQAGGSLRLSCAASGSTFVKSAMGLYRQAPGKERELVAAINWSGGNTYYADSVKGRFKISRYNAKNTVYLQMNSLKPEETAVYYCNADAYRSDFDYWGQGTQVTVSS”, the “polyreactivity (PSR sort gate)” value was “high polyreactivity”.

Take “QVQLVESGGGLVQAGGSLRLSCAASGSTFVLNAMGWYRQAPGKERELVAAITGSGSTKYADSVKGLFTISRDNAKNTVYLQMNSLKPEDTAVYYCATAAVYPIPFGYWGQGTQVTVSS”: the “polyreactivity (PSR sort gate)” value is “low polyreactivity”.

In the case of “QVQLVESGGGLVQAGGSLRLSCAASGSTFVLYAMGWYRQAPGKERELVATISSGGSTYYADSVKGRFTISRDNAKNTVYLQMNSLKPEDTAVYYCAASYSRFVDWIGDPGYDYWGQGTQVTVSS”, the “polyreactivity (PSR sort gate)” value was “low polyreactivity”.

Turning to “QVQLVESGGGLVQAGGSLRLSCAASGSTFVNNAMGWYRQAPGKERELVASITQSGGSTFYADSVKGRFTISRDNAKNTVYLQMNSLKPEDTAVYYWGQGTQVTVSS”, the “polyreactivity (PSR sort gate)” value is “low polyreactivity”.

Turning to “QVQLVESGGGLVQAGGSLRLSCAASGSTFVPYAMGWYRQAPGKERELVAAINIGGRTNYADSVKGRFTISRDNAKNTVYLQMNSLKPEDTAVYYCAAEWGYYARSQYYYWGQGTQVTVSS”, the “polyreactivity (PSR sort gate)” value was “low polyreactivity”.

In the case of “QVQLVESGGGLVQAGGSLRLSCAASGSTFVPYTMGWYRQAPGKERELVAAISGSGGTDYADSVKGRFTISRDNAKITVYLQLNSLKPEDTAVYYCGTDGLDFWFIYDYWGQGTQVTVSS”, the “polyreactivity (PSR sort gate)” value is on record as “low polyreactivity”.

With “QVQLVESGGGLVQAGGSLRLSCAASGSTFVPYTMGWYRQAPGKERELVAVITSGGSTNYADSVKGRFTISLDNAKNTVYLQMNSLKPEDTAVYYCDARRRGRKERGEDYWGQGTQVTVSS”, the “polyreactivity (PSR sort gate)” value is “high polyreactivity”.

With “QVQLVESGGGLVQAGGSLRLSCAASGSTFVQYAMGWYRQAPGKERELVAAIRGRGDSTYYADSVKGRFTISRDNAKNTVYLQMNSLKPEDTAVYYCAARGQGSRGMYYWGQGTQVTVSS”, the “polyreactivity (PSR sort gate)” value is “low polyreactivity”.

Consider “QVQLVESGGGLVQAGGSLRLSCAASGSTFVRNAMGWYRQAPGKDRELVAAIRWRSGSTYYADSVKGRFTISRDNAKNTVYLQMNSLKPEDTAVYYCAKAFSRTTYRYDYWGQGTQVTVSS”, for which the “polyreactivity (PSR sort gate)” value is “high polyreactivity”.

For the sequence “QVQLVESGGGLVQAGGSLRLSCAASGSTFVRNAMGWYRQAPGKERELVAAIRWRSGSTYYADSVKGRFTISRDNAKNTVYFQMNSLKPEDTAVYYCAVKGLGKMNYWGQGTQVTVSS”, the “polyreactivity (PSR sort gate)” value was “high polyreactivity”.

In the case of “QVQLVESGGGLVQAGGSLRLSCAASGSTFVRNAMGWYRQAPGKERELVAAISWSGGRTYYADSVKGRFTISRDNAKNTVYLQMNSLKPEDTAVYYCAARGYAGVDYDYWGQGTQVTVSS”, the “polyreactivity (PSR sort gate)” value is on record as “high polyreactivity”.

As to “QVQLVESGGGLVQAGGSLRLSCAASGSTFVRNAMGWYRQAPGKERELVAAITRGGRTYYADSVKGRFTISRDNAKNTVYLQLNSLKPEVTAVYYCAKPSSPSLGGVSDRNYWGQGTQVTVSS”, the “polyreactivity (PSR sort gate)” value was “low polyreactivity”.

“QVQLVESGGGLVQAGGSLRLSCAASGSTFVRNDKGWYRQAPGTEREFVAAINGDGRTYYADSVKGRFTISRDNEKNTVYLQMNSLKPEDTAVYYCAADWKSSRSYSYEMDYWGQGTQVTVSS”: the “polyreactivity (PSR sort gate)” value is on record as “low polyreactivity”.

“QVQLVESGGGLVQAGGSLRLSCAASGSTFVRNGMGWYRKAPGKERELVAAITRGGSTYYADSVKGRFTISRDNAKNTVYLQMNSLKPEDTAVYYSAKRYRGGYYYPYNYWGLGTQVTVSS”: the “polyreactivity (PSR sort gate)” value was “high polyreactivity”.

Regarding “QVQLVESGGGLVQAGGSLRLSCAASGSTFVRNVMGWYRQAPGKERELVARISWSGTGTYYADSVKGRFTISRDNAKNTVYLQMNSLKPEDTAVYYCAARSTVYISSDYWGQGTQVTVSS”, the “polyreactivity (PSR sort gate)” value is given as “low polyreactivity”.

With “QVQLVESGGGLVQAGGSLRLSCAASGSTFVRYAMGWYRQAPGKERELVASISSSGSTYYADSVKGRFTISRDNAKNTVYLQMNSLKPEDTAVYYCAKQYGGRYGYWGQGTQVTLSS”, the “polyreactivity (PSR sort gate)” value is given as “low polyreactivity”.

For the sequence “QVQLVESGGGLVQAGGSLRLSCAASGSTFVRYAMGWYRQAPGKERELVATISSRGGRTYYADSVKGRFTISRDNAKNTVYLQMNSLKPEDTAVYYCAADRRAAVPFGYGYWGQGTQVTVSS”, the “polyreactivity (PSR sort gate)” value is “high polyreactivity”.

Turning to “QVQLVESGGGLVQAGGSLRLSCAASGSTFVSNAMGGYRQAPGKERELVAAISSSGGRTSYADSVKGRFTISRDNAKNTVYLQMNSLKPEDTAVYYCAARFKSVDYVQYYYWGQGTQVTVSS”, the “polyreactivity (PSR sort gate)” value is listed as “low polyreactivity”.

Consider “QVQLVESGGGLVQAGGSLRLSCAASGSTFVSNAMGWYRPAPGKERELVAAINGSGGITYYADSVKGRFTISRDNAKNTVYLQMNSLKPEDTAVYYCAAEYDGPSTWVDYYYHYGYWGQGTQVTVSS”, for which the “polyreactivity (PSR sort gate)” value is reported as “low polyreactivity”.

For the sequence “QVQLVESGGGLVQAGGSLRLSCAASGSTFVSNVMGWYRQAPGKERELVAAITRGGSTKYADSVKGRFTISRDNAKNSVYLQMNSLKPEDTAVYYCAKRLYTRPGWYDYWGQGTQVTVSS”, the “polyreactivity (PSR sort gate)” value is on record as “high polyreactivity”.

Regarding “QVQLVESGGGLVQAGGSLRLSCAASGSTFVSYAMGWYRQAPGKERDFVAAITWSGGSTYYADSVKGRFTISRDNAKNTVYLQMNSLKPEDTAVYYCNARTGRSPTGFRYWGQGTQVTVSS”, the “polyreactivity (PSR sort gate)” value was “high polyreactivity”.

For the sequence “QVQLVESGGGLVQAGGSLRLSCAASGSTFVSYAMGWYRQAPGKERELVAAISFSDDSTYYADSVKGRFTISRDNAKNTVYFQMHSLKPEDTAVYYCAAASDSYVRVLEGFTFDYWGQGTQVTVSS”, the “polyreactivity (PSR sort gate)” value is reported as “low polyreactivity”.

Consider “QVQLVESGGGLVQAGGSLRLSCAASGSTFVTNAMGWYRKAPGKERELVAAIRWSGGNTYYADSVKGRFTISRDNAKNTVYLQMNSLKPEDTAVYYCAAKKHLLPSYRGIRYYYWGQGTQVTVSS”, for which the “polyreactivity (PSR sort gate)” value is listed as “high polyreactivity”.

With “QVQLVESGGGLVQAGGSLRLSCAASGSTFVTNAMGWYRQAPGKEREFVAAISNSSGSTYYADSVKGRFTISRDNEKNTVYLQMNSLKPEDTAVYYCNATPDDWLQEDYWGQGTQVTVSS”, the “polyreactivity (PSR sort gate)” value was “low polyreactivity”.

Take “QVQLVESGGGLVQAGGSLRLSCAASGSTFVTYAMGRYRQAPGTERELVAAISRRGGSTYYADSVKGRFTISRDNAKYTVYLQLNSLKPVDTAFYYCAAVQGSYSRDGADDYWGQGTQVTVSS”: the “polyreactivity (PSR sort gate)” value was “high polyreactivity”.

“QVQLVESGGGLVQAGGSLRLSCAASGSTFVVNAMGWYRQAPGKERELVAAIAGGGSTNYADSVKGRFTISRDNAKNTVYLQMNRLKPEDTAVYYCAKDLTQSYEYDYWGQGTQVTVSS”: the “polyreactivity (PSR sort gate)” value is listed as “low polyreactivity”.
